Results reported in patent publication EP4534554A1 (Corregene Biotechnology Co., Ltd., dated 2025).
Where two headings read alike, the source gives them in different places.

T1: MAGE-A1 peptide on HLA-A*02:01 (human)
T1 peptide: KVLEYVIKV


What was measured:
[1] = molecular target: MAGE-A1 target antigen peptide … presented by HLA-A*02:01 on cells (human); experiment: cell-based or functional assay
[2] = molecular target: T1, MAGE-A1 peptide on HLA-A*02:01; experiment: JKR9 reporter + peptide-loaded T2, 16 h; full-length, on cells
[3] = molecular target: MAGE-A1 Dextramer (human); experiment: MAGE-A1 Dextramer gradient staining (MFI) of cells expressing the TCR, flow cytometry
[4] = molecular target: MAGE-A1 Dextramer (human); experiment: KD-SPR estimated from Dextramer staining MFI by the linear formula of Figure 6; not measured by SPR
[5] = molecular target: T1, MAGE-A1 peptide on HLA-A*02:01; experiment: MAGE-A1 Dextramer gradient on transduced JKR9; unit inferred; full-length, on cells
[6] = molecular target: T1, MAGE-A1 peptide on HLA-A*02:01; experiment: KD-SPR estimated from Dextramer MFI by the formula calibrated on gp100 TCRs, not measured; unit inferred; full-length, on cells
[7] = molecular target: T2, MAGE-A1 target antigen peptide … presented by HLA-A*02:01 on cells (human); experiment: cell-based or functional assay; remark: listed apart in the source
[8] = molecular target: T2, MAGE-A1 target antigen peptide … …; experiment: cell-based or functional assay; remark: listed apart in the source

EC50 Value (M), JKR9 reporter activation by peptide-loaded T2 cells [1]	EC50 of peptide [2]	EC50 [3]	Kd [4]	EC50 of Dextramer staining [5]	Kd [6]	EC50 Value (M), JKR9 reporter activation by peptide-loaded T2 cells [7]	EC50 Value (M), JKR9 reporter activation by peptide-loaded T2 cells [8]	Binder
2.3e-08 M	23 nM	0.0475 nM	0.00294 nM	0.0475 nM	~0.00294 nM	–	–	A1A2-M01-612 (TCR, V domains shown) Valpha: GEDVEQSLFLSVREGDSSVINCTYVDPYSTYLYWYKQEPGAGLQLLTYIFSFMDMKQDQRLTVLLNKKDKHLSLRIADTQTGDSAIYFCAGSGGGTDKLIFGTGTRLQVFP Vbeta: GAVVSQHPSWVICKSGTSVKIECRSLDFEATTMFWYRQFPKQSLMLMATSNEGSKATYEQGVEKDKFLINHASLTLSTLTVTSAHPEDSSFYICSAREPWDPWYEQYFGPGTRLTVT
3.23e-08 M	32.3 nM	0.0808 nM	0.0186 nM	0.0808 nM	~0.0186 nM	–	–	A1A2-M01-616 (TCR, V domains shown) Valpha: GEDVEQSLFLSVREGDSSVINCTYTDSSQTYLYWYKQEPGAGLQLLTYIFAFMQMKQDQRLTVLLNKKDKHLSLRIADTQTGDSAIYFCAGSGGGTDKLIFGTGTRLQVFP Vbeta: GAVVSQHPSWVICKSGTSVKIECRSLDFEATTMFWYRQFPKQSLMLMATTDYGSKATYEQGVEKDKFLINHASLTLSTLTVTSAHPEDSSFYICSAREPGQGPWEQYFGPGTRLTVT
2.62e-08 M	26.2 nM	0.0961 nM	0.0338 nM	0.0961 nM	~0.0338 nM	–	–	A1A2-M01-613 (TCR, V domains shown) Valpha: GEDVEQSLFLSVREGDSSVINCTYTDSSLTYLYWYKQEPGAGLQLLTYIFSFMDMKQDQRLTVLLNKKDKHLSLRIADTQTGDSAIYFCAGSGGGTDKLIFGTGTRLQVFP Vbeta: GAVVSQHPSWVICKSGTSVKIECRSLDFQATTMFWYRQFPKQSLMLMATTDYGSKATYEQGVEKDKFLINHASLTLSTLTVTSAHPEDSSFYICSAREPGQGPWEQYFGPGTRLTVT
3.06e-08 M	30.6 nM	0.187 nM	0.337 nM	0.187 nM	~0.337 nM	–	–	A1A2-M01-623 (TCR, V domains shown) Valpha: GEDVEQSLFLSVREGDSSVINCTYTDSSQTYLYWYKQEPGAGLQLLTYIFIFQAMKQDQRLTVLLNKKDKHLSLRIADTQTGDSAIYFCAGSGGGTDKLIFGTGTRLQVFP Vbeta: GAVVSQHPSWVICKSGTSVKIECRSLDFEATTMFWYRQFPKQSLMLMATTDYGSKATYEQGVEKDKFLINHASLTLSTLTVTSAHPEDSSFYICSAREPGQGPWEQYFGPGTRLTVT
2.59e-08 M	25.9 nM	0.116 nM	0.0651 nM	0.116 nM	~0.0651 nM	–	–	A1A2-M01-624 (TCR, V domains shown) Valpha: GEDVEQSLFLSVREGDSSVINCTYQYGMSTYLYWYKQEPGAGLQLLTYIFSFMDMKQDQRLTVLLNKKDKHLSLRIADTQTGDSAIYFCAGSGGGTDKLIFGTGTRLQVFP Vbeta: GAVVSQHPSWVICKSGTSVKIECRSLDFEATTMFWYRQFPKQSLMLMATTDYGSKATYEQGVEKDKFLINHASLTLSTLTVTSAHPEDSSFYICSAREPGQGPWEQYFGPGTRLTVT
2.94e-08 M	29.4 nM	0.163 nM	0.208 nM	0.163 nM	~0.208 nM	–	–	A1A2-M01-614 (TCR, V domains shown) Valpha: GEDVEQSLFLSVREGDSSVINCTYSDMLSTYLYWYKQEPGAGLQLLTYIFIFQAMKQDQRLTVLLNKKDKHLSLRIADTQTGDSAIYFCAGSGGGTDKLIFGTGTRLQVFP Vbeta: GAVVSQHPSWVICKSGTSVKIECRSLDFEATTMFWYRQFPKQSLMLMATTDYGSKATYEQGVEKDKFLINHASLTLSTLTVTSAHPEDSSFYICSAREPGQGPWEQYFGPGTRLTVT
3.52e-08 M	35.1 nM	0.0852 nM	0.0222 nM	0.0852 nM	~0.0222 nM	–	–	A1A2-M01-625 (TCR, V domains shown) Valpha: GEDVEQSLFLSVREGDSSVINCTYTDSSMTYLYWYKQEPGAGLQLLTYIFAFESMKQDQRLTVLLNKKDKHLSLRIADTQTGDSAIYFCAGSGGGTDKLIFGTGTRLQVFP Vbeta: GAVVSQHPSWVICKSGTSVKIECRSLDFEATTMFWYRQFPKQSLMLMATTDYGSKATYEQGVEKDKFLINHASLTLSTLTVTSAHPEDSSFYICSAREPGQGPWEQYFGPGTRLTVT
2.61e-08 M	26.1 nM	0.103 nM	0.0432 nM	0.103 nM	~0.0432 nM	–	–	A1A2-M01-617 (TCR, V domains shown) Valpha: GEDVEQSLFLSVREGDSSVINCTYPDMFSTYLYWYKQEPGAGLQLLTYIFAFMQMKQDQRLTVLLNKKDKHLSLRIADTQTGDSAIYFCAGSGGGTDKLIFGTGTRLQVFP Vbeta: GAVVSQHPSWVICKSGTSVKIECRSLDFEATTMFWYRQFPKQSLMLMATSNEGDQATYEQGVEKDKFLINHASLTLSTLTVTSAHPEDSSFYICSAREPGQGPWEQYFGPGTRLTVT
1.76e-08 M	17.6 nM	0.0911 nM	0.028 nM	0.0911 nM	~0.028 nM	–	–	A1A2-M01-622 (TCR, V domains shown) Valpha: GEDVEQSLFLSVREGDSSVINCTYTDSSSTYLYWYKQEPGAGLQLLTYIFAFESMKQDQRLTVLLNKKDKHLSLRIADTQTGDSAIYFCAGSGGGTDKLIFGTGTRLQVFP Vbeta: GAVVSQHPSWVICKSGTSVKIECRSLDFEATTMFWYRQFPKQSLMLMATTDYGSKATYEQGVEKDKFLINHASLTLSTLTVTSAHPEDSSFYICSAREPGQGPWEQYFGPGTRLTVT
3.57e-08 M	35.7 nM	0.121 nM	0.0747 nM	0.121 nM	~0.0747 nM	–	–	A1A2-M01-621 (TCR, V domains shown) Valpha: GEDVEQSLFLSVREGDSSVINCTYTDSEFTYLYWYKQEPGAGLQLLTYIFAFESMKQDQRLTVLLNKKDKHLSLRIADTQTGDSAIYFCAGSGGGTDKLIFGTGTRLQVFP Vbeta: GAVVSQHPSWVICKSGTSVKIECRSLDFEATTMFWYRQFPKQSLMLMATTDYGSKATYEQGVEKDKFLINHASLTLSTLTVTSAHPEDSSFYICSAREPGQGPWEQYFGPGTRLTVT
2.5e-08 M	25 nM	0.212 nM	0.524 nM	0.212 nM	~0.524 nM	–	–	A1A2-M01-620 (TCR, V domains shown) Valpha: GEDVEQSLFLSVREGDSSVINCTYTDSSQTYLYWYKQEPGAGLQLLTYIFSNMDMKQDQRLTVLLNKKDKHLSLRIADTQTGDSAIYFCAGSGGGTDKLIFGTGTRLQVFP Vbeta: GAVVSQHPSWVICKSGTSVKIECRSLDFEATTMFWYRQFPKQSLMLMATTDYGSKATYEQGVEKDKFLINHASLTLSTLTVTSAHPEDSSFYICSAREPGQAWSDQYFGPGTRLTVT
–	–	–	–	–	–	1.67e-05 M	2.31e-06 M	ht27WT (TCR, V domains shown) V domain 1: RGEDVEQSLFLSVREGDSSVINCTYTDSSSTYLYWYKQEPGAGLQLLTYIFSNMDMKQDQRLTVLLNKKDKHLSLRIADTQTGDSAIYFCAGSGGGTDKLIFGTGTRLQVFP V domain 2: GAVVSQHPSWVICKSGTSVKIECRSLDFQATTMFWYRQFPKQSLMLMATSNEGSKATYEQGVEKDKFLINHASLTLSTLTVTSAHPEDSSFYICSAREPGQGPYEQYFGPGTRLTVTE
